Measured values reported in PMC5339894, “G196 epitope tag system: a novel monoclonal antibody, G196, recognizes the small, soluble peptide DLVPR with high affinity” (Scientific Reports, 2017).
Where no end group is shown, it is not given here.

Assays:
[1] = system: mAb G196; experiment: Western blot epitope mapping of bacterially expressed GST proteins with mAb G196; format: binding, mouse; settings: purified or bacterially expressed GST proteins, SDS-PAGE, denaturing conditions
Description: To confirm that the G196 epitope is located on the C-terminal extension of the 4T-2 fragment, and to further determine the precise location of the G196 mAb epitope, double-stranded oligonucleotides encoding peptides containing the C-terminal extension were inserted into the BamHI/EcoRI restriction sites within the pGEX-6P-1 vector. Total protein lysates were prepared from Escherichia coli that had been transformed with individual GST fusion protein constructs.
All short 4T-2 fragments were generated by annealing complementary oligos. The oligos used to synthesize the indicated fragments are summarized (Fasmac, Kanagawa, Japan) in Supplementary Table 2. Annealing reaction mixtures contained equimolar amounts of each oligo and the reactions were performed in a thermal cycler, with initial denaturation at 98 °C for 3 min, followed by a temperature decrease of 2 °C every 20 s down to 4 °C to allow the oligos to anneal slowly. The oligos contained the BamHI/EcoRI restriction sites and the 4T-2 fragments were cloned into these restriction sites within the pGEX-6P-1 vector (GE Healthcare, Buckinghamshire, England).
A fragment of the GST gene, encoding residues 2–212, was prepared by polymerase chain reaction (PCR) amplification using the Pfu polymerase (BioAcademia) and the pGEX-6P-1 plasmid as the template. […]

[2] = system: anti-FLAG M2 mAb affinity column; settings: mild pH (pH 3.5–4.4); cited from earlier work
Source text: Previously, we studied the subcellular localization of myocardin-related transcription factor (MRTF)-B, a shuttle protein between the nucleus and cytoplasm that is expressed in response to various stimuli.

[3] = target: T1, synthetic peptide GSDLVPRGS (synthetic); experiment: ITC; VP-ITC, 25 C; cell: 25 uM G196 Fab in 20 mM Tris-HCl (pH 8.0), 150 mM NaCl; peptide (500 uM) injected; single-site model; settings: both partners purified
T1 construct: source: synthetic peptide (Tufts University Core Facility)
T1 chain: GSDLVPRGS

Molecule: 6P-12: GST fusion protein with C-terminal extension fragment inserted in pGEX-6P-1 ({GST}-SDLVPRGSP)
- recognition by mAb G196 in Western blot [1]: detected

Molecule: N=C(N)NCCC[C@H](N)C(=O)O [Arg]
- dissociation of FLAG-tagged proteins from column [2]: effectively dissociate FLAG-tagged proteins

B1: G196 antigen binding fragment (Fab) (Fab, V domains shown)
VH: QVKLQESGAELVKPGASVKLSCKASGYTFTNYWMHWVKLRPGQGFEWIGEINPSNGGSNYNEKFKRKATLTVDKSSSTAYMQLSSLTSEDSAVFYCSIWDSYFDYWGQGTTLTVSS
VL: NIVMTQSPKSMSMSVGERVTLTCKASENVVTYVSWYQQKPEQSPKLLIYGASNRYTGVPDRFTGSGSATDFTLTISSVQAEDLADYHCGQGYSYPYTFGGGTKLEIK
notes: Fab part of the heavy chain of m1; chain in PDB 5H2B; as the light chain of m1; also called G196 Fab; G196 IgG Fab; source: purified mAb G196 IgG fragmented using papain, Fab purified by protein A chromatography
- Kd [3]: 1.25 ± 0.77 nM
- dH [3]: -15.3 kcal/mol
- stoichiometry N [3]: 1.2 ± 0.05
